# Measured values published in article PMC4830966, “Molecular basis of the STIL coiled coil oligomerization explains its requirement for de-novo formation of centrosomes in mammalian cells” (Scientific Reports, 2016).
# Numbering of substitutions follows the chain as printed. In names and notes the source's numbering stands.
# B1: WT STIL CCD peptide (STIL amino acids 718-749) (peptide)
# peptide: LSPDAYRFLTEQDRQLRLLQAQIQRLLEAQSL
# notes: also called WT CCD; STIL coiled coil peptide; source: synthetic peptide
# B2: STIL CCD L718E peptide (peptide)
# peptide: B1 peptide with L1E
# notes: source: synthetic peptide
# B3: STIL CCD L736E peptide (peptide)
# peptide: B1 peptide with L19E
# notes: source: synthetic peptide
# Experiments:
# [1] = biological target: the molecule itself; assay: SEC; 35 μM WT STIL CCD peptide on Superdex30 analytical column, 25 mM sodium phosphate buffer pH 6.8 (IS = 40 mM)
# [2] = biological target: the molecule itself; assay: SEC; 500 μM WT STIL CCD peptide on Superdex30 analytical column, 25 mM sodium phosphate buffer pH 6.8 (IS = 40 mM)
# [3] = biological target: the molecule itself; assay: SEC; 250 µl of 100 μM peptide on Superdex30 analytical column, 25 mM sodium phosphate buffer pH 6.8 (IS = 40 mM); comparison of elution profiles
protein,measurement,setting,value
B1,stoichiometry N,[1],~2
same,stoichiometry N,[2],4
same,stoichiometry N,[3],~4
B2,stoichiometry N,[3],~2
B3,stoichiometry N,[3],~2
